Experimental data from patent US20230051304A1 (Regeneron, published 2023).
Where a chain is given by its changes, count along the chain named. Like-named read-outs stand apart in the source and are kept apart here.

Assays:
[1] = target: T1, murine IL12 receptor complex (IL12Rβ1 and IL12Rβ2) (mouse, UniProt Q60837 20-738; P97378 24-874); assay: flow cytometry on activated primary mouse T cells (CD25+ CD8+ CD90.2+), anti-human Fc detection, MFI
T1 construct: whole, on cells; also called IL12 receptors beta 1 (IL12Rβ1) and beta 2 (IL12Rβ2); IL12Rb1 and IL12Rb2
Description: Spleens were harvested from C57BL/6 mice and dissociated manually. Splenocytes were stimulated by culturing for 48 hours in RPMI+10% FBS+2 mM L-glutamine/Pen/Strep in the presence of anti-CD3 and anti-CD28 activation beads (Thermo/11456D) at a 1:3 (beads:splenocytes) ratio and in the presence of 30 U/mL human IL-2 (proleukin). […] Cells were washed once before plating 200,000 cells per well in a 96-well plate and staining indicated concentration of test IL12-Fc fusion proteins or variant molecules for 2 hours on ice. Cells were washed twice before staining for the Fc portion using an ahuFC antibody (Jackson Immuno 109-136-170). Data was acquired using a BD LSRFortessa™ X-20 instrument. Data plots represent geometric mean fluorescence intensity (MFI) of the ahuFC signal from CD25+, CD8+CD90.2+ T cells.

[2] = target: T1, murine IL12 receptor complex (IL12Rβ1 …); assay: cell-based or functional assay
[3] = target: T1, murine IL12 receptor complex (IL12Rβ1 …); assay: cell-based or functional assay; remark: listed apart in the source
[4] = target: T1, murine IL12 receptor complex (IL12Rβ1 …); assay: cell-based or functional assay; remark: listed apart in the source
[5] = target: murine IL12 receptor complex (IL12Rβ1 and IL12Rβ2) (mouse) (UniProt Q60837); assay: cell-based or functional assay
[6] = target: murine IL12 receptor complex (IL12Rβ1 and IL12Rβ2) (mouse) (UniProt Q60837); assay: cell-based or functional assay; remark: listed apart in the source
[7] = target: murine IL12 receptor complex (IL12Rβ1 and IL12Rβ2) (mouse) (UniProt Q60837); assay: cell-based or functional assay; remark: listed apart in the source

T1 sequence (Q60837 20-738, chain 1 of 2): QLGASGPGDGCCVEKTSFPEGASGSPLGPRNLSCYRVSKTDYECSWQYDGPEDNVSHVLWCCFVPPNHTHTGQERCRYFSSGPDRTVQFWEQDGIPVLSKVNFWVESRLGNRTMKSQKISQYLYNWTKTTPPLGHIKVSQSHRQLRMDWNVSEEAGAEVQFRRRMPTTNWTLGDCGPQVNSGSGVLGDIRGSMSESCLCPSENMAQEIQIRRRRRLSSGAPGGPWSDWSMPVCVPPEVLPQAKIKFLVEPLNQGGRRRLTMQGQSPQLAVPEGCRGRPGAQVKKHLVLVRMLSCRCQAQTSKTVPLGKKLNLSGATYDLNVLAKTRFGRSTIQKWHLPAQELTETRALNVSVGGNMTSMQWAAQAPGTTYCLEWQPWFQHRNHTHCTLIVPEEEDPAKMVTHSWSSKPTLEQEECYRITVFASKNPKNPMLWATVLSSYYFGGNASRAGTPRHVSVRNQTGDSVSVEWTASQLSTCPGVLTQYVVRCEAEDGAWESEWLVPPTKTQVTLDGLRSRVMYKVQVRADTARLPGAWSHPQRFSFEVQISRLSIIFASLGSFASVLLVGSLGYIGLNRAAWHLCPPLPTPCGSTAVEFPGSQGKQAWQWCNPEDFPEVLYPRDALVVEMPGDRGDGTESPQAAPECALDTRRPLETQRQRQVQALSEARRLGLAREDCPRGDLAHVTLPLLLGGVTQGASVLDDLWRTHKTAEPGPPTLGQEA
T1 sequence (P97378 24-874, chain 2 of 2): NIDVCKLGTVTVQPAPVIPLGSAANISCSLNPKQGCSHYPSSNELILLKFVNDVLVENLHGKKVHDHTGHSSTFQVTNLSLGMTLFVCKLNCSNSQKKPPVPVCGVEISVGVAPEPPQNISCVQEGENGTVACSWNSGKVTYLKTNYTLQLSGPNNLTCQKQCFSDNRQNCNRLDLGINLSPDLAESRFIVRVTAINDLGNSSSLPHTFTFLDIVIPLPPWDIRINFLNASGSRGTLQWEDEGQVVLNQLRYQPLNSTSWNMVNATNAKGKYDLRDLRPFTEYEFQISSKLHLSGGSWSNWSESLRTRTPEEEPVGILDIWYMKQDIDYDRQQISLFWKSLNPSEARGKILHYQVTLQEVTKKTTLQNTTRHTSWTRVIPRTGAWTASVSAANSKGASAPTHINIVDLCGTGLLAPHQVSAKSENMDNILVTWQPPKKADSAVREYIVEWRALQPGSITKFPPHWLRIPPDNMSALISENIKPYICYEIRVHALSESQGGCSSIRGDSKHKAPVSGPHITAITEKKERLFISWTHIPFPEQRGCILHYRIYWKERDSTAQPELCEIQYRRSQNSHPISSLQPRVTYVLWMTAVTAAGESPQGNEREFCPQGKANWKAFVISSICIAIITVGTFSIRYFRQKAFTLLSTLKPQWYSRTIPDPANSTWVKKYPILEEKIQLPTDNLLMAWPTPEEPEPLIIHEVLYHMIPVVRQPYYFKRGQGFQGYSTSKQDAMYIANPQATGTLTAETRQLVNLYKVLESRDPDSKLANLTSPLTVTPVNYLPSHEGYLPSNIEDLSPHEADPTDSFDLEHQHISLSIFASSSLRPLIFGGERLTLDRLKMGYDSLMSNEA
murine IL12 receptor complex (IL12Rβ1 and IL12Rβ2) (mouse), sequence (Q60837 20-738, chain 1 of 2): as the sequence (Q60837 20-738, chain 1 of 2) above
murine IL12 receptor complex (IL12Rβ1 and IL12Rβ2) (mouse), sequence (P97378 24-874, chain 2 of 2, further chain): as the sequence (P97378 24-874, chain 2 of 2) above

B1: Fc-IL12Rβ1(D1)-p40-p35 x Fc (Fc fusion)
chain 1: ESKYGPPCPPCPAPPVAGPSVFLFPPKPKDTLMISRTPEVTCVVVDVSQEDPEVQFNWYVDGVEVHNAKTKPREEQFNSTYRVVSVLTVLHQDWLNGKEYKCKVSNKGLPSSIEKTISKAKGQPREPQVYTLPPSQEEMTKNQVSLSCAVKGFYPSDIAVEWESNGQPENNYKTTPPVLDSDGSFFLVSRLTVDKSRWQEGNVFSCSVMHEALHNRFTQKSLSLSPGK
chain 2: ESKYGPPCPPCPAPPVAGPSVFLFPPKPKDTLMISRTPEVTCVVVDVSQEDPEVQFNWYVDGVEVHNAKTKPREEQFNSTYRVVSVLTVLHQDWLNGKEYKCKVSNKGLPSSIEKTISKAKGQPREPQVYTLPPSQEEMTKNQVSLWCLVKGFYPSDIAVEWESNGQPENNYKTTPPVLDSDGSFFLYSRLTVDKSRWQEGNVFSCSVMHEALHNHYTQKSLSLSLGKGGGGSGGGGSGGGGSQLGASGPGDGCCVEKTSFPEGASGSPLGPRNLSCYRVSKTDYECSWQYDGPEDNVSHVLWCCFVPPNHTHTGQERCRYFSSGPDRTVQFWEQDGIPVLSKVNFWVESRLGNRTMKSQKISQYLYNWTKTTPPLGGGGSGGGGSGGGGSMWELEKDVYVVEVDWTPDAPGETVNLTCDTPEEDDITWTSDQRHGVIGSGKTLTITVKEFLDAGQYTCHKGGETLSHSHLLLHKKENGIWSTEILKNFKNKTFLKCEAPNYSGRFTCSWLVQRNMDLKFNIKSSSSSPDSRAVTCGMASLSAEKVTLDQRDYEKYSVSCQEDVTCPTAEETLPIELALEARQQNKYENYSTSFFIRDIIKPDPPKNLQMKPLKNSQVEVSWEYPDSWSTPHSYFSLKFFVRIQRKKEKMKETEEGCNQKGAFLVEKTSTEVQCKGGNVCVQAQDRYYNSSCSKWACVPCRVRSGGGGSGGGGSGGGGSRVIPVSGPARCLSQSRNLLKTTDDMVKTAREKLKHYSCTAEDIDHEDITRDQTSTLKTCLPLELHKNESCLATRETSSTTRGSCLPPQKTSLMMTLCLGSIYEDLKMYQTEFQAINAALQNHNHQQIILDKGMLVAIDELMQSLNHNGETLRQKPPVGEADPYRVKMKLCILLHAFSTRVVTINRVMGYLSSA
notes: Receptor-masked monovalent murine IL12; also called Fc x Fc-mIL12Rb1(D1)-mIL12p40-p35
B1: binds [1].

B2: Bivalent: Fc-IL12(p40-p35) (Fc fusion)
chain: ESKYGPPCPPCPAPPVAGPSVFLFPPKPKDTLMISRTPEVTCVVVDVSQEDPEVQFNWYVDGVEVHNAKTKPREEQFNSTYRVVSVLTVLHQDWLNGKEYKCKVSNKGLPSSIEKTISKAKGQPREPQVYTLPPSQEEMTKNQVSLTCLVKGFYPSDIAVEWESNGQPENNYKTTPPVLDSDGSFFLYSRLTVDKSRWQEGNVFSCSVMHEALHNHYTQKSLSLSLGKGGGGSGGGGSGGGGSMWELEKDVYVVEVDWTPDAPGETVNLTCDTPEEDDITWTSDQRHGVIGSGKTLTITVKEFLDAGQYTCHKGGETLSHSHLLLHKKENGIWSTEILKNFKNKTFLKCEAPNYSGRFTCSWLVQRNMDLKFNIKSSSSSPDSRAVTCGMASLSAEKVTLDQRDYEKYSVSCQEDVTCPTAEETLPIELALEARQQNKYENYSTSFFIRDIIKPDPPKNLQMKPLKNSQVEVSWEYPDSWSTPHSYFSLKFFVRIQRKKEKMKETEEGCNQKGAFLVEKTSTEVQCKGGNVCVQAQDRYYNSSCSKWACVPCRVRSGGGGSGGGGSGGGGSRVIPVSGPARCLSQSRNLLKTTDDMVKTAREKLKHYSCTAEDIDHEDITRDQTSTLKTCLPLELHKNESCLATRETSSTTRGSCLPPQKTSLMMTLCLGSIYEDLKMYQTEFQAINAALQNHNHQQIILDKGMLVAIDELMQSLNHNGETLRQKPPVGEADPYRVKMKLCILLHAFSTRVVTINRVMGYLSSA
With B2 the “EC50 (M); STAT3-Luc reporter, CTLL2/STAT3-Luc cells” value (shortened to “EC50 (M) … CTLL2/STAT3-Luc cells”) [2] was 1.85e-11 M, the “Fold induction at 6.25 nM; STAT3-Luc reporter, CTLL2/STAT3-Luc cells” value [2] was 6.73 fold and the “Max fold induction; STAT3-Luc reporter, CTLL2/STAT3-Luc cells” value (“Max fold induction … CTLL2/STAT3-Luc cells” below) [2] was 7.66 fold. For the same binder, the “EC50 (M) … CTLL2/STAT3-Luc cells” value [3] was 6.11e-11 M, the “Fold induction at 20 nM; STAT3-Luc reporter, CTLL2/STAT3-Luc cells” value [3] was 12.8 fold and the “Max fold induction … CTLL2/STAT3-Luc cells” value [3] was 14.4 fold. For the same binder, the “EC50 (M) … CTLL2/STAT3-Luc cells” value [4] was 9.95e-11 M and the “Max fold induction … CTLL2/STAT3-Luc cells” value [4] was 12.2 fold.

B3: Fc-p40-p35 x Fc (Fc fusion)
chain 1: B1 chain 1
chain 2: B2 chain with T147W
notes: hIgG4s(HoleStar) x hIgG4s(Knob)-p40-p35, murine IL12; also called Fc-p40-p35×Fc control; unmasked monovalent control
B3: binds [1].

B4: Fc-p40-p35 x Fc-IL12Rβ1(D1) (Fc fusion)
chain 1: ESKYGPPCPPCPAPPVAGPSVFLFPPKPKDTLMISRTPEVTCVVVDVSQEDPEVQFNWYVDGVEVHNAKTKPREEQFNSTYRVVSVLTVLHQDWLNGKEYKCKVSNKGLPSSIEKTISKAKGQPREPQVYTLPPSQEEMTKNQVSLSCAVKGFYPSDIAVEWESNGQPENNYKTTPPVLDSDGSFFLVSRLTVDKSRWQEGNVFSCSVMHEALHNRFTQKSLSLSPGKGGGGSGGGGSGGGGSQLGASGPGDGCCVEKTSFPEGASGSPLGPRNLSCYRVSKTDYECSWQYDGPEDNVSHVLWCCFVPPNHTHTGQERCRYFSSGPDRTVQFWEQDGIPVLSKVNFWVESRLGNRTMKSQKISQYLYNWTKTTPPL
chain 2: B2 chain with T147W
notes: Receptor-masked monovalent murine IL12; also called hIgG4s(HoleStar)-mIL12Rb1(D1) x hIgG4s(Knob)-mIL12p40-p35
B4: binds [1].

B5: Fc-p40-p35 x Fc-IL12Rβ2(D1) (Fc fusion)
chain 1: ESKYGPPCPPCPAPPVAGPSVFLFPPKPKDTLMISRTPEVTCVVVDVSQEDPEVQFNWYVDGVEVHNAKTKPREEQFNSTYRVVSVLTVLHQDWLNGKEYKCKVSNKGLPSSIEKTISKAKGQPREPQVYTLPPSQEEMTKNQVSLSCAVKGFYPSDIAVEWESNGQPENNYKTTPPVLDSDGSFFLVSRLTVDKSRWQEGNVFSCSVMHEALHNRFTQKSLSLSPGKGGGGSGGGGSGGGGSNIDVCKLGTVTVQPAPVIPLGSAANISCSLNPKQGCSHYPSSNELILLKFVNDVLVENLHGKKVHDHTGHSSTFQVTNLSLGMTLFVCKLNCSNSQKKPPVPVCGVEISVGV
chain 2: B2 chain with T147W
notes: Receptor-masked monovalent murine IL12; also called hIgG4s(HoleStar)-mIL12Rb2(D1) x hIgG4s(Knob)-mIL12p40-p35
B5: binds [1].

B6: recombinant mIL12 (ligand, mouse)
chain 1: RVIPVSGPARCLSQSRNLLKTTDDMVKTAREKLKHYSCTAEDIDHEDITRDQTSTLKTCLPLELHKNESCLATRETSSTTRGSCLPPQKTSLMMTLCLGSIYEDLKMYQTEFQAINAALQNHNHQQIILDKGMLVAIDELMQSLNHNGETLRQKPPVGEADPYRVKMKLCILLHAFSTRVVTINRVMGYLSSA
chain 2: MWELEKDVYVVEVDWTPDAPGETVNLTCDTPEEDDITWTSDQRHGVIGSGKTLTITVKEFLDAGQYTCHKGGETLSHSHLLLHKKENGIWSTEILKNFKNKTFLKCEAPNYSGRFTCSWLVQRNMDLKFNIKSSSSSPDSRAVTCGMASLSAEKVTLDQRDYEKYSVSCQEDVTCPTAEETLPIELALEARQQNKYENYSTSFFIRDIIKPDPPKNLQMKPLKNSQVEVSWEYPDSWSTPHSYFSLKFFVRIQRKKEKMKETEEGCNQKGAFLVEKTSTEVQCKGGNVCVQAQDRYYNSSCSKWACVPCRVRS
B6 was tested, and the EC50 (M); STAT3-Luc reporter, CTLL2/STAT3-Luc cells [5] was 5.56e-11 M, the Fold induction at 6.25 nM; STAT3-Luc reporter, CTLL2/STAT3-Luc cells [5] was 12.2 fold and the Max fold induction; STAT3-Luc reporter, CTLL2/STAT3-Luc cells [5] was 12.4 fold. It also gave an EC50 (M); STAT3-Luc reporter, CTLL2/STAT3-Luc cells [6] of 3.46e-11 M, a Fold induction at 20 nM; STAT3-Luc reporter, CTLL2/STAT3-Luc cells [6] of 18.8 fold and a Max fold induction; STAT3-Luc reporter, CTLL2/STAT3-Luc cells [6] of 19.1 fold. For the same binder, the EC50 (M); STAT3-Luc reporter, CTLL2/STAT3-Luc cells [7] was 3.71e-10 M and the Max fold induction; STAT3-Luc reporter, CTLL2/STAT3-Luc cells [7] was 17.8 fold.
